Values of other authors as cited in article PMC10935306.

Target: Ship2 Sam (Homo sapiens) (UniProt O15357)
UniProt O15357, sequence (O15357 1193-1258): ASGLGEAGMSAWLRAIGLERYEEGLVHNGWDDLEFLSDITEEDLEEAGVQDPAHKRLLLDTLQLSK

With EphA2 Sam (from UniProt P29317) as the substance, how does the Kd read?
Its Kd is 750 nM.
